# In patent US20240252641A1 (TCR2 THERAPEUTICS, published 2024):
# T1: human CD27 fused to human Fc domain (human, UniProt P26842 21-192, limits assumed)
# T1 construct: bought reagent; also called CD27-Fc; CD27Fc
# T1 sequence (looked up): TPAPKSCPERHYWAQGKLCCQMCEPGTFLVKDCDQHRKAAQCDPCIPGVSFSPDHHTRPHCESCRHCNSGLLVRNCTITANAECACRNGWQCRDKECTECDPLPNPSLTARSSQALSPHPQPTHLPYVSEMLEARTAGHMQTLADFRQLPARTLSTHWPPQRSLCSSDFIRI
# T2: CD70 on cells (CHO-CD70, JVM-3, U266, Raji, THP-1, T cells) (human, UniProt P32970 1-193)
# T2 construct: whole, on cells; also called cell-surface CD70
# T2 sequence (looked up): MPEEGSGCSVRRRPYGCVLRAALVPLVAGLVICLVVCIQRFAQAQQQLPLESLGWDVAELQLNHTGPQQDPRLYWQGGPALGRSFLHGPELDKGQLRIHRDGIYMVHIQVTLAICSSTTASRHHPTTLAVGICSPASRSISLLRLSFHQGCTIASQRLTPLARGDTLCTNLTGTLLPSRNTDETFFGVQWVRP
# B1: human CD70, recombinant, N-terminally biotinylated (residues 39-193) (ligand, UniProt P32970 39-193, looked up)
# chain: QRFAQAQQQLPLESLGWDVAELQLNHTGPQQDPRLYWQGGPALGRSFLHGPELDKGQLRIHRDGIYMVHIQVTLAICSSTTASRHHPTTLAVGICSPASRSISLLRLSFHQGCTIASQRLTPLARGDTLCTNLTGTLLPSRNTDETFFGVQWVRP
# modifications: N-terminal biotin
# notes: range 39-193; the same entry is used there; also called biotinylated human CD70; CD70 biotin
# Tests used:
# [1] = target: T1, human CD27 fused to human Fc domain; assay: BLI, biotinylated CD70 on streptavidin sensors, 400 nM analyte
# Experimental: (§1) Bio-layer interferometry was used to measure the binding affinity of CD70 to CD70-targeted antibodies 41D12, R3P3H12, R3P5A1, R3aP3E8, and R3aP9D10, and human CD27 fused to human Fc domain (CD27-Fc; Acro Biosystems cat. CD7-h5254). […] Following CD70 immobilization, biosensors were immersed in Octet Buffer to remove unbound, biotinylated CD70 and to establish a flat baseline sensor signal. CD70-loaded Biosensors were then transferred to Octet buffer containing 400 nM of CD27-Fc or αCD70 antibody and association was monitored for 5 minutes at 30° C. whilst agitating at 1,000 RPM. An scFv fragment derived from humanized llama αCD70 antibody 41D12 and fused to human Fc (41D12-Fc) served as a positive control for CD70 binding and an αLysozyme single-domain camelid antibody (clone D2-L19) was used as a negative control. CD27-Fc or αCD70 antibody dissociation was initiated by transferring sensors to Octet buffer and monitored for 5 minutes. Data were analyzed using ForteBio Data Analysis Suite 9.0. The observed association (kₒₙ) and dissociation (koff) rates for the binding of single-domain antibodies to CD70 were determined using a 1:1 curve fitting model to obtain, in all cases, R²≥0.95. Values of the equilibrium dissociation constant for binding to CD70, KD, were determined from the ratio of koff and kₒₙ.
# [2] = target: T2, CD70 on cells (CHO-CD70, JVM-3, U266, …); assay: binding to CD70-expressing CHO cells with and without CD27-Fc
# Summary of the method: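 Anti-CD70 antibodies and CD27-Fc were applied to CHO cells with CD70 attached to the cell surface, in four set-ups. Each was applied alone; antibody was premixed with CD27-Fc; or cells were first coated with CD27-Fc or with antibody, washed, and then given the mixture. The binding signal was then measured in each set-up.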
# [3] = target: B1; assay: BLI, biotinylated CD70 on streptavidin sensors, 400 nM analyte
# Experimental: as §1
# [4] = target: T2, CD70 on cells (CHO-CD70, JVM-3, U266, …); assay: cell ELISA, about 500 nM VHH-His, anti-His-HRP
# Experimental: A cell binding ELISA was carried out to determine whether the anti-CD70 VHHs could recognize the antigen on cells. ˜500 nM each VHH-his was diluted in blocking buffer (PBS+0.01% Tween20+2% non-fat dry milk) and added to wells containing 100,000-200,000 pre-blocked CHO-CD70 cells (high CD70 expression), JVM3 cells (medium-low CD70 expression), wild type CHO cells (negative control), HL60 cells (negative control). The plate was incubated for 1 hour at room temperature with agitation. After incubation cells were washed 3 times by spinning down and dumping of the supernatant followed by addition of PBST. Subsequently, secondary antibody was applied (anti-His-HRP) and the mixture incubated for 30 minutes. After 3 more washes TMB substrate was applied to the plates and the reaction was allowed to proceed for 1-5 minutes before 1M HCl was applied as a stop solution. Immediately following application of the stop solution the absorbance at 450 nm (OD₄₅₀) of each well was measured on a spectrophotometer.
binding result [1],binding result [2],binding result [3],binding result [4],Binder
binds,,,,B1
,binds,binds,,"R3P3H12 VHH (VHH, tested as VHH-His) VHH: QVQLQESGGGLVQTGGSLRLSCTASGSIFDIVRGSWYRQAPGNQRELVAIITSGGATNYADSVAGRFTISRDSAWKALYLQMNSLKPEDTAVYFCNMESVRYRNYWGQGTQVTVSS"
,,,binds,"R3P2G8 VHH (VHH, tested as VHH-His) VHH: QVQLQESGGGLVQTGGSLRLSCTASGSIFDIARGNWYRQAPGKQRELVAIITSGGATNYADSVAGRFTISRDDAKNTVYLQMNGLKPEDTAVYFCNMESLSYRHYWGQGTQVTVSS"
,binds,binds,,"R3P5A1 VHH (VHH, tested as VHH-His) VHH: QVQLQESGGGLVQPGGSLRLSCTASGSIFSATRMEWYRQAPGKQRELVAIVTSGGRTNYADSVNGRFTISRDNAKNTLYLQMNNLKPEDTAVYYCKFERYDYVNYWGRGTQVTVSS"
,binds,binds,,"R3aP9D10 VHH (VHH, tested as VHH-His) VHH: QVQLQESGGGLVQAGGSLRLSCAAPGFTFDAYAIGWFRQAPGKEREGVICLSPSDGSTYYADSVKGRFTISSDNAKNTVYLQMNSLKPEDTAVYYCATPSWCSLKADFGSWGQGTQVTVSS"
